Source: the supplement of paper PMC10567573

B1: RSPH3 (parent)
chain: KAASLARNLAKRRRTYLGGAAGRS
B2: HDAC6 (parent)
chain: QYMNEGELRVLADTYDSVYLHPNS
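Also: lentivirally expressed fusions sorted by FACS into six bins by GFP to DsRed ratio, PSI derived from sequencing read proportions per bin multiplied by bin number.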

Variants of: B1
Assay: protein stability index of a GFP-peptide fusion (GPS, HEK-293T) (PSI 1-6); higher = more stable
Conditions: c terminus: a fixed tail appended
With K1W the protein stability index was 2.29. K1T gave a protein stability index of 2.98. Variant K1G has a protein stability index of 3.77. Work on K1H yielded a protein stability index of 2.49. K1C gave a protein stability index of 1.87. For K1F, the protein stability index was 1.47. In the case of K1A, the protein stability index is reported as 1.98. Work on S4R yielded a protein stability index of 2.82. S4H showed a protein stability index of 2.32. With S4D the protein stability index was 3.47. Work on S4Y yielded a protein stability index of 1.48. S4G showed a protein stability index of 3.32. In the case of S4C, the protein stability index is reported as 1.98. S4N gave a protein stability index of 3.2. For S4A, the protein stability index was 1.89. For S4I, the protein stability index was 1.83. With S4E the protein stability index was 1.99. Variant S4W has a protein stability index of 1.89. For S4V, the protein stability index was 2.36. In the case of S4Q, the protein stability index is reported as 2.36. A3N gave a protein stability index of 2.69. A3G showed a protein stability index of 3.72. For A3Q, the protein stability index was 3.71. Work on A3F yielded a protein stability index of 1.01. For A3Y, the protein stability index was 1.74. Variant A3H has a protein stability index of 3.48. Work on A3R yielded a protein stability index of 3.01. A3P showed a protein stability index of 3.96. With A3D the protein stability index was 3.02. A3K showed a protein stability index of 2.68. For A3E, the protein stability index was 3.16. L5M gave a protein stability index of 2.33. Work on L5A yielded a protein stability index of 4.18. In the case of L5V, the protein stability index is reported as 4.21. With L5F the protein stability index was 2.56. Variant L5D has a protein stability index of 4.65. Variant L5W has a protein stability index of 2.58. L5G gave a protein stability index of 4.8. Work on L5Q yielded a protein stability index of 4.14. L5C gave a protein stability index of 2.89. In the case of L5I, the protein stability index is reported as 2.58. Work on L5T yielded a protein stability index of 3.96. N8D gave a protein stability index of 3.23. N8Y gave a protein stability index of 3.42. For N8S, the protein stability index was 2.88. N8K gave a protein stability index of 2.52. For N8F, the protein stability index was 2.33. Work on N8L yielded a protein stability index of 2.26. N8G showed a protein stability index of 3.98. N8Q showed a protein stability index of 1.35. For A10C, the protein stability index was 1.98. A10F gave a protein stability index of 1.29. Work on A10D yielded a protein stability index of 3.14. A10N showed a protein stability index of 2.64. For A10H, the protein stability index was 3.15. A10V gave a protein stability index of 2.43. With A10S the protein stability index was 2.91. Work on A10G yielded a protein stability index of 4.07. Work on A10T yielded a protein stability index of 3.17. In the case of A2Q, the protein stability index is reported as 3.13. Variant A2N has a protein stability index of 3.47. For A2G, the protein stability index was 3. A2T gave a protein stability index of 3.68. A2E gave a protein stability index of 3.41. With A2S the protein stability index was 3.04. A2F gave a protein stability index of 2.08. A2R showed a protein stability index of 3.91. Work on A2I yielded a protein stability index of 1.71. Variant A6H has a protein stability index of 2.2. Work on A6R yielded a protein stability index of 2.56. In the case of A6S, the protein stability index is reported as 3.07. For A6M, the protein stability index was 2.52. Work on A6P yielded a protein stability index of 3.94. A6K gave a protein stability index of 2.4. A6F gave a protein stability index of 2.23. In the case of A6W, the protein stability index is reported as 1.58. Work on A6Y yielded a protein stability index of 1.94. A6G showed a protein stability index of 3.27. A6C showed a protein stability index of 1.06. L9A gave a protein stability index of 3.41. Variant L9N has a protein stability index of 4.46. For L9K, the protein stability index was 4.94. In the case of L9F, the protein stability index is reported as 2.44. Work on L9E yielded a protein stability index of 4.34. Variant L9R has a protein stability index of 4.9. For L9P, the protein stability index was 3.94. Work on L9W yielded a protein stability index of 2.38. With R7G the protein stability index was 2.54. R7T gave a protein stability index of 2.08. R7L showed a protein stability index of 2.51. R7N showed a protein stability index of 3.59. With R7D the protein stability index was 3.83. Work on R7S yielded a protein stability index of 2.58. Work on R7E yielded a protein stability index of 4.36. For R7V, the protein stability index was 1.98. Work on K11P yielded a protein stability index of 2.89. K11N showed a protein stability index of 2.36. With K11G the protein stability index was 2.49. In the case of K11Q, the protein stability index is reported as 1.98. Work on K11I yielded a protein stability index of 2.78. K11A gave a protein stability index of 1.64. For K11F, the protein stability index was 1.92.

Variants of: B2
Assay: as above
Conditions: c terminus: a fixed tail appended
Work on Y15K yielded a protein stability index of 3.46. N4F showed a protein stability index of 1.21. N4D gave a protein stability index of 1.61. E5A showed a protein stability index of 2.95. For E5M, the protein stability index was 1.8. With E5K the protein stability index was 1.9. Work on E5L yielded a protein stability index of 2.12. V18P showed a protein stability index of 1.92. Work on V18Y yielded a protein stability index of 2.21. Variant V18N has a protein stability index of 2.98. V18I showed a protein stability index of 1.51. Work on V18E yielded a protein stability index of 3.18. Work on G6E yielded a protein stability index of 2.19. Work on G6H yielded a protein stability index of 1.63. G6S showed a protein stability index of 1.98. Work on A12S yielded a protein stability index of 2.58. With V10G the protein stability index was 3.15. In the case of V10H, the protein stability index is reported as 2.31. For V10L, the protein stability index was 1.66. For V10S, the protein stability index was 2.81. Work on T14S yielded a protein stability index of 2.04. With T14Y the protein stability index was 2.92. T14D gave a protein stability index of 2.84. M3H gave a protein stability index of 3.64. In the case of M3S, the protein stability index is reported as 3.23. L11F gave a protein stability index of 2.01. With L11R the protein stability index was 2.61. Work on L11V yielded a protein stability index of 2.25. L11C showed a protein stability index of 1.95. Variant L11S has a protein stability index of 1.76. In the case of S24P, the protein stability index is reported as 1.91. With S24E the protein stability index was 1.73. Work on E7A yielded a protein stability index of 1.96. E7F showed a protein stability index of 2.46. In the case of E7H, the protein stability index is reported as 2.26. Variant E7K has a protein stability index of 1.76. For E7V, the protein stability index was 1.5. For D13V, the protein stability index was 1.97. With Q1I the protein stability index was 1.83. Q1G showed a protein stability index of 1.89. In the case of Q1A, the protein stability index is reported as 1.69. With Q1P the protein stability index was 2.63. Variant H21R has a protein stability index of 1.76. H21Q showed a protein stability index of 2.11. S17W showed a protein stability index of 2.57. S17P showed a protein stability index of 3.32. Work on L8T yielded a protein stability index of 2.19. Variant L8D has a protein stability index of 2.7. Variant L20T has a protein stability index of 2.88. L20M gave a protein stability index of 2.14. For L20R, the protein stability index was 2.06. With D16F the protein stability index was 3.19. For D16P, the protein stability index was 2.56. In the case of D16V, the protein stability index is reported as 2.42. N23I showed a protein stability index of 2.31. For N23T, the protein stability index was 2.03. N23R showed a protein stability index of 2.17. P22S gave a protein stability index of 1.68. P22A showed a protein stability index of 2.15. With P22R the protein stability index was 1.96. In the case of P22F, the protein stability index is reported as 1.82. R9N gave a protein stability index of 2.67. For R9A, the protein stability index was 1.76. R9V showed a protein stability index of 4.11. In the case of R9C, the protein stability index is reported as 1.48.
